Laboratory results: patent publication US6509033 (Harvard, dated 2003)

Each binder was assayed against 'Empty' HLA-DR1 purified from insect cells expressing recombinant DR1 cDNA (human).

Row | Binder | Ki [nM]
1 | KMRMATPLLMQALPM [Invariant Chain (Ii) 107-121] | < 10
2 | LPKPPKPVSKMRMAT [Ii 97-111] | > 10000
3 | VGSDWRFLRGYHQYA [Pseudo HLA-A2 103-117] | 49
4 | YKHTLNQIDSVKVWPRR [Bovine Fetuin 56-72] | 66
5 | RVEYHFLSPYVSPKESP [Transferrin Recpt. 680-696] | < 10
6 | SDLSFSKDWSFYL [β2m 52-64] | > 10000
7 | IPADLRIISANGCKVDNS [Na+/K+ ATPase 199-216] | 68
